Measurements reported in article PMC13623948.

Experiments:
[1] = target: oxyester-linked UBA6-Ub conjugate (UBA6 C625S charged with ubiquitin) (human) (UniProt A0AVT1); test: BLI; His-tagged E1 ligands on Anti-Penta-His (His1K) biosensors; analyte BIRC6^UBC or BIRC6^(UBCΔinsertion loop) at 40-3240 nM; 50 mM HEPES, pH 7.4, 150 mM NaCl, 0.05% Tween-20, 10 mM imidazole; 25 °C; steady-state 1:1 fit
[2] = target: human UBA6 (full-length, amino acid residues 1-1052) (human) (UniProt A0AVT1)
human UBA1 (human) = human UBA1 (human) (UniProt P22314); test: BLI; His-tagged E1 ligands on Anti-Penta-His (His1K) biosensors; analyte BIRC6^UBC or BIRC6^(UBCΔinsertion loop) at 40-3240 nM; 50 mM HEPES, pH 7.4, 150 mM NaCl, 0.05% Tween-20, 10 mM imidazole; 25 °C; steady-state 1:1 fit

human UBA6 (full-length, amino acid residues 1-1052) (human), sequence (A0AVT1 whole entry, the tested form may be a part): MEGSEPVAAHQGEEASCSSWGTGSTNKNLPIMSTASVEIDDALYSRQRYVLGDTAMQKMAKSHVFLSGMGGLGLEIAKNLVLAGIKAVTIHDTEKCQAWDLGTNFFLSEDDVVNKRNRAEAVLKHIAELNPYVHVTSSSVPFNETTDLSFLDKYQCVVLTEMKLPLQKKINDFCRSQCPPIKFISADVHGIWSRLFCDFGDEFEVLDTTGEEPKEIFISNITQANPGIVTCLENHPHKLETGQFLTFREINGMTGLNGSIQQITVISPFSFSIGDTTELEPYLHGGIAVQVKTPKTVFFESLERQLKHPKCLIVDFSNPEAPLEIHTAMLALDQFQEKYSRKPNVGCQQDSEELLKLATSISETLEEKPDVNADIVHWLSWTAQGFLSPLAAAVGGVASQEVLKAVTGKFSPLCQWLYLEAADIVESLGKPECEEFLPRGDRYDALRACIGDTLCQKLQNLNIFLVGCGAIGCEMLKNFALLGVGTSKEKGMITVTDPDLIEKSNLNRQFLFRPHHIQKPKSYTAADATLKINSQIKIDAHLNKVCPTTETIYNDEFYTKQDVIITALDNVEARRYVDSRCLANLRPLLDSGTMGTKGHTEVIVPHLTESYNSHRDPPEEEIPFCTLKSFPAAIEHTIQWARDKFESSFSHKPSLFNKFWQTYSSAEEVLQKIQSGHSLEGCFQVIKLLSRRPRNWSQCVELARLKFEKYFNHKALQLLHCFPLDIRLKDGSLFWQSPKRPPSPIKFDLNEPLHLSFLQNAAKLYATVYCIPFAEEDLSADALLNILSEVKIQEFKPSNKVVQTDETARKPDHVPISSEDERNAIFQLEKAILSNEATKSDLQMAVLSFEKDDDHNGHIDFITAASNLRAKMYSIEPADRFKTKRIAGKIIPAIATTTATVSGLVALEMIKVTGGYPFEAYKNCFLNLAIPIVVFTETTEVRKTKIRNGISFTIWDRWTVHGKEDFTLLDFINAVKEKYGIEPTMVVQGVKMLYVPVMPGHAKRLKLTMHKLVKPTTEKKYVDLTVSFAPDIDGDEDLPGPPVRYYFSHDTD
UBC domain of BIRC6 (residues 4520-4857), sequence (Q9NR09 4520-4857): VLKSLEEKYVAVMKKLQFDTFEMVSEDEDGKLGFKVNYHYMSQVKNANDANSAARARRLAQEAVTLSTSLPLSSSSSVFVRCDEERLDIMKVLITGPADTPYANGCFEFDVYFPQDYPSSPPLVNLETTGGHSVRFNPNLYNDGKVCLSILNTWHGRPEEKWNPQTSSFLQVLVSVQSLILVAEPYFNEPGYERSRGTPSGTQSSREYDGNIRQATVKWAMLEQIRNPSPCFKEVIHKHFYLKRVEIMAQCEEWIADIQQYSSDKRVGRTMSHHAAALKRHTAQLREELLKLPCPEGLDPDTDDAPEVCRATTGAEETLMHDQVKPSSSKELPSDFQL

Row | reduction of Ub charging of BIRC6^UBC by UBA6 relative to WT (E1–E2 transthioesterification assay, 2 min) [2] | Substance | other results
1 |  | UBC domain of BIRC6 (residues 4520-4857) (from UniProt Q9NR09 4520-4857) (domain or fragment) | Kd [1]: 2.41 µM
2 | 50% | BIRC6^UBC C-terminal extension mutant (R4745A-R4799A-T4789A) (from UniProt Q9NR09 4520-4857) (domain or fragment) | 
3 |  | BIRC6^UBC with the insertion loop deleted (from UniProt Q9NR09 4520-4857) (domain or fragment) | Kd (human UBA1 (human)): 1.47 µM
4 |  | BIRC6^UBC Y4711G (from UniProt Q9NR09 4520-4857) (domain or fragment) | reduction of BIRC6^UBC~Ub formation by UBA6 relative to WT (E1–E2 transthioesterification assay, 2 min) [2]: 60%
5 | 25% | BIRC6^UBC N-helix mutant (R4576A-Q4580A-V4583G) (from UniProt Q9NR09 4520-4857) (domain or fragment) | 
6 | 50% | BIRC6^UBC β4 loop mutant (Q4634A) (from UniProt Q9NR09 4520-4857) (domain or fragment) | 
7 | 25% | BIRC6^UBC N-terminal extension mutant (A4569R) (from UniProt Q9NR09 4520-4857) | 
